The text below walks through data of publication PMC11096129.

For one series, the target named is T1, RAD52-OR (open ring) (Homo sapiens, UniProt P43351 1-418).
T1 sequence: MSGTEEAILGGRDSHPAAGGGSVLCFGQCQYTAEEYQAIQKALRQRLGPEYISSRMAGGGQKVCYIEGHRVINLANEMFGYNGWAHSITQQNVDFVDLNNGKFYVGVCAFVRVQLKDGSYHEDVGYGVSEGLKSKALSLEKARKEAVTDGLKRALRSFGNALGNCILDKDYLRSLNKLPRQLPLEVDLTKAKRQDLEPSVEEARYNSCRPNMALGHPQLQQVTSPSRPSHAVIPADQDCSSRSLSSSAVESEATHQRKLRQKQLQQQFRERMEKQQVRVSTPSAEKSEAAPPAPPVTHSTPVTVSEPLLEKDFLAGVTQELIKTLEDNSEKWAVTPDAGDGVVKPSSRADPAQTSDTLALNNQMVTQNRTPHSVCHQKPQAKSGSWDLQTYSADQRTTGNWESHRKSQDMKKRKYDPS
Nature of the series: fluorescence anisotropy; 1 mM Mg(OAc)2; ring concentration (10-mer); FA: 25 mM HEPES pH 8.0, 0.2 M KOAc, 10% glycerol, 0.25 mM TCEP, 1 mM Mg(OAc)2, 0.01% Brij-35, 25 °C, 10 nM DNA; BLI: 25 mM HEPES pH 8.0, 200 mM KOAc, 0.01% Tween-20, 1 mM Mg(OAc)2, 0.25 mM TCEP, 25 °C. As to conditions: protein: recombinant; tags: none (tags removed); chain copies: 10; label: 5' 6-FAM; single strand. In general terms: Polarisation of emitted light reports the rotation of a fluorescent probe.

The target of a further series is T2, RAD52 NTD (Homo sapiens, UniProt P43351 1-209, del210-418).
T2 sequence: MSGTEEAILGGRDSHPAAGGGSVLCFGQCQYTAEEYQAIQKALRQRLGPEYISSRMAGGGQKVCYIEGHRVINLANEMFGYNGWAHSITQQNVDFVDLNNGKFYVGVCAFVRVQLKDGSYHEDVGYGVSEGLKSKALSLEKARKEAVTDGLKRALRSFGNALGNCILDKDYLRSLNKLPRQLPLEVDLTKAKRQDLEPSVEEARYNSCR
Nature of the series: fluorescence anisotropy; 1 mM Mg(OAc)2; ring concentration (11-mer); FA: 25 mM HEPES pH 8.0, 0.2 M KOAc, 10% glycerol, 0.25 mM TCEP, 1 mM Mg(OAc)2, 0.01% Brij-35, 25 °C, 10 nM DNA; BLI: 25 mM HEPES pH 8.0, 200 mM KOAc, 0.01% Tween-20, 1 mM Mg(OAc)2, 0.25 mM TCEP, 25 °C. The settings on record: protein: recombinant; tags: none (tags removed); chain copies: 11; label: 5' 6-FAM; single strand.

The target in a further series is T3, RAD52(∆C) (Homo sapiens, UniProt P43351 1-400, del401-418).
T3 sequence: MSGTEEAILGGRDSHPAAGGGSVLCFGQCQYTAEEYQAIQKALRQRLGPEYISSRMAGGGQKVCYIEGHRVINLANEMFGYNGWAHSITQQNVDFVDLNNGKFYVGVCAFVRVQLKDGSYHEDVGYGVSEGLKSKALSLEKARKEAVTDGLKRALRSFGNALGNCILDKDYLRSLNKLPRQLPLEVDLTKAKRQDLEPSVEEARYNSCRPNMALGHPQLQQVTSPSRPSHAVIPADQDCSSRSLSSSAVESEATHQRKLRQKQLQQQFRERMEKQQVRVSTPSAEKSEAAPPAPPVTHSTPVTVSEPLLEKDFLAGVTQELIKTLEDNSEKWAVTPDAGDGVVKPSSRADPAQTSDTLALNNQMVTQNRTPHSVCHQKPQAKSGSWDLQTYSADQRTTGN
Nature of the series: fluorescence anisotropy; 1 mM Mg(OAc)2; FA: 25 mM HEPES pH 8.0, 0.2 M KOAc, 10% glycerol, 0.25 mM TCEP, 1 mM Mg(OAc)2, 0.01% Brij-35, 25 °C, 10 nM DNA; BLI: 25 mM HEPES pH 8.0, 200 mM KOAc, 0.01% Tween-20, 1 mM Mg(OAc)2, 0.25 mM TCEP, 25 °C. As to conditions: protein: recombinant; tags: none (tags removed); chain copies: 11; label: 5' 6-FAM; single strand.

The target in another series is T4, RAD52(∆RID) (Homo sapiens, UniProt P43351 1-418, del239-290).
T4 sequence: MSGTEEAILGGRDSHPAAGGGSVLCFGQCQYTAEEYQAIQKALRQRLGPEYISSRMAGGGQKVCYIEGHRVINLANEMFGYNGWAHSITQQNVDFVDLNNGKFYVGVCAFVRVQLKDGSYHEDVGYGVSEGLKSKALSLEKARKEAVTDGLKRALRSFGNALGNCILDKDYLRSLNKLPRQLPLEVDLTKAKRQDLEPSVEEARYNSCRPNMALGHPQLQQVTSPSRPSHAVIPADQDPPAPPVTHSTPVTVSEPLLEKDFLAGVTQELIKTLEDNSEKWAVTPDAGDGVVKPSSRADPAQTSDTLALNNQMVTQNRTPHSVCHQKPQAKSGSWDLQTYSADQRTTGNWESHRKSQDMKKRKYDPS
The description is as above. The settings on record: protein: recombinant; tags: none (tags removed); label: 5' 6-FAM; single strand.

Series [1] addresses T5, RPA (Homo sapiens, UniProt P27694;P15927;P35244 1-616;1-270;1-121). The description is as above. The settings on record: protein: recombinant; tags: 10xHis on RPA3; copies: 1;1;1; label: 5' 6-FAM; single strand.
The next series concerns the target RPA(∆WHD) (Homo sapiens, UniProt P27694;P15927;P35244 1-616;1-206;1-121). The description is as above. The settings on record: protein: recombinant; tags: 10xHis on RPA3; copies: 1;1;1; label: 5' 6-FAM; single strand.
For series [2], the target named is T5, RPA. The series is described as follows: cryo-EM (3.2 Å, trimeric core); 2 mM Mg(OAc)2; FA: 25 mM HEPES pH 8.0, 0.2 M KOAc, 10% glycerol, 0.25 mM TCEP, 1 mM Mg(OAc)2, 0.01% Brij-35, 25 °C, 10 nM DNA; BLI: 25 mM HEPES pH 8.0, 200 mM KOAc, 0.01% Tween-20, 1 mM Mg(OAc)2, 0.25 mM TCEP, 25 °C. The settings on record: protein: recombinant; tags: 10xHis on RPA3; copies: 1;1;1; single strand.

T5 sequence (P27694 whole entry, chain 1 of 3): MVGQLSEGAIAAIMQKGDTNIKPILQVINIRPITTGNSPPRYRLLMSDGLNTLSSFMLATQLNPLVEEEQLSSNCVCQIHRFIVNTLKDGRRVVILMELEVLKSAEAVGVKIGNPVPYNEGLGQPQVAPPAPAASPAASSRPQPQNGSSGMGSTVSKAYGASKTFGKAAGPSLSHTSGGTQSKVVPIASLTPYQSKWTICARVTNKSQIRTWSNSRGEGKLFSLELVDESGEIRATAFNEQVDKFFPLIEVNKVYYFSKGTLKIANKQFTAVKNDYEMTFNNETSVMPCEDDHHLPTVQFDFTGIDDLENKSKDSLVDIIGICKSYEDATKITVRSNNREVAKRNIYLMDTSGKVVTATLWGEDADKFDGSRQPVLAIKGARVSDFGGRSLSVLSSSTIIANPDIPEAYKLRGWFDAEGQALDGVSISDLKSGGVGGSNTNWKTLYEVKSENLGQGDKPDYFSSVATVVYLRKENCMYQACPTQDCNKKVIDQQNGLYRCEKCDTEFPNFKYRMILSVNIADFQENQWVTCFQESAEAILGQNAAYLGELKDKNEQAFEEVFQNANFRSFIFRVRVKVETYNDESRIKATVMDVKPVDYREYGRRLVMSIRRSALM
T5 sequence (P15927 whole entry, chain 2 of 3): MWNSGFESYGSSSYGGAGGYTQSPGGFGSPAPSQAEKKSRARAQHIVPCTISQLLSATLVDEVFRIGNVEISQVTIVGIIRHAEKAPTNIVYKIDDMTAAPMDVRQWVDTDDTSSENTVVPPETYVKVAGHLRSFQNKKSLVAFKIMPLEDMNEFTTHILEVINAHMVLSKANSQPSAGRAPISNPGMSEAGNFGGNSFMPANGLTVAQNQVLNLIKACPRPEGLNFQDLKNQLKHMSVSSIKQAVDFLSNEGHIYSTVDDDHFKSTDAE
T5 sequence (P35244 whole entry, chain 3 of 3): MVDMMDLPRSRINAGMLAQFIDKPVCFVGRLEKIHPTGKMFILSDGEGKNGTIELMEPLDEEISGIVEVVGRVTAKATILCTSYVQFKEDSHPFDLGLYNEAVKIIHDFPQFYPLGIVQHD
Sequence of RPA(∆WHD) (P27694 whole entry, chain 1 of 3): as the sequence (P27694 whole entry, chain 1 of 3) above
Sequence of RPA(∆WHD) (P15927 1-206, chain 2 of 3): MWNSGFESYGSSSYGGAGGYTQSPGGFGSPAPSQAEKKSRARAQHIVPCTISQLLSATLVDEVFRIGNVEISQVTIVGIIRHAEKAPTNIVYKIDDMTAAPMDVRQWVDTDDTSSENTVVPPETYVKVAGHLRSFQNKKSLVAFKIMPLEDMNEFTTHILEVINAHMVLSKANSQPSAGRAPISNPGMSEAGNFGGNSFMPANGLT
Sequence of RPA(∆WHD) (P35244 whole entry, chain 3 of 3): as the sequence (P35244 whole entry, chain 3 of 3) above

As usually defined, the Kd is the concentration at which binding is half-saturated. For TATCGAATCCGTCTAGTCAACGCTGCCGAATTCTACCAGT (ssDNA) [FAM-SSA4 (40 nt)], the Kd with RAD52-OR (open ring) was determined as 0.3 ± 0.1 nM; in the series with RAD52 NTD, 3.2 ± 0.6 nM; in the series with RAD52(∆C) it was 0.2 ± 0.2 nM; with RAD52(∆RID) it was 0.7 ± 0.2 nM; in the series with RPA [1], 3.6 ± 0.5 nM; with RPA(∆WHD), 3.4 ± 0.9 nM.

As to CGGCAGCGTTGACTAGACGGATTCGATA (ssDNA) [SSA7 (28 nt)], the binding result with RPA [2] is on record as “binds”.
